Results published in the nanobody polyreactivity screen of Harvey et al. (2022).

assay: yeast display, Sf9 membrane polyspecificity reagent, FACS + sequencing; frameworks hold sequencing errors
How it was run: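 In a synthetic yeast display library (Saccharomyces cerevisiae BJ5465), nanobody expression was induced with galactose for 36–48 hours. FACS gates were set low and high (top ~1%) using anti-HA fluorescence for expression and streptavidin fluorescence for binding of the Sf9 membrane reagent. Each polyreactivity label is drawn from the gate of origin.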

| Sequence | polyreactivity (PSR sort gate) |
| --- | --- |
| QVQLVESGGGLVQAGGSLRLSCAASGSIFPSYAMGWYRQAPGKERELVATISGSGTRTYYADSVKGRFTISRDNAKNTFYLQMNSLKPEDTAVYYCARLPPGDMDYWGQGTQVTVSS | low polyreactivity |
| QVQLVESGGGLVQAGGSLRLSCAASGSIFPSYDMGWYRQAPGKERELVAAIRSGGNTTYADSVKGRFTISRDNAKNTVYLQMNSLKPEDTAVYYCAKGYYYYSTVQFYYWGQGTQVTVSS | low polyreactivity |
| QVQLVESGGGLVQAGGSLRLSCAASGSIFPSYVMGWYRQAPGKERELVAGITSSGGSTYYADSVKGRFTISRDNAKNTVYLQMNSLKPEDTAVYYCAARWKPASYGYGYWGQGTQVTVSS | low polyreactivity |
| QVQLVESGGGLVQAGGSLRLSCAASGSIFPTNAMGWYRQAPGKERELVAAISRGDSTYYADSVKGRFTISRDNAKNTVYLQMNSLKPEDTAVYYCAARRSRTLWSPFYYWGQGTQVTVSS | low polyreactivity |
| QVQLVESGGGLVQAGGSLRLSCAASGSIFPVNAMGWYRQAPGKEREWVAAISVSGGRTYYADSVKGRFTISRDNAKNTVYLQMNSLKPEDTAVYYCNKLLARGYASGYDYWGQGTQVTVSS | high polyreactivity |
| QVQLVESGGGLVQAGGSLRLSCAASGSIFPVNTMGWYRQAPGKERELVAAITQRGGRTYYADSVKGRFTISRDNAKNTVYFQMNSLKPEDTAVYYCNRDLGAGGYDYWGQGTQVTVSS | low polyreactivity |
| QVQLVESGGGLVQAGGSLRLSCAASGSIFPVYAMGWYRQAPGKERELVAAINSSGGSTYYADSVKWRFTISRDNAKNTVYLQMNSLKPEDTAVYYCAAEISTASYYAKTYDYWGQGTQVSVSS | low polyreactivity |
| QVQLVESGGGLVQAGGSLRLSCAASGSIFPWNTMGWYRQAPGKERELVARISTSGASTYYADSVKGRFTISRDNAKNTVYLQMNSLKPEDTAVYYCAKVRHYGGRSWWYYYWGQGTQVTVSS | high polyreactivity |
| QVQLVESGGGLVQAGGSLRLSCAASGSIFPWYTMGWYRQAPGKERELVAAITSSGGGTYYADSVKGRFTISRDNAKNTVYLQINSLKPEDTAVYYCAAGLDWGPEYEYWGQGTQVTVSS | low polyreactivity |
| QVQLVESGGGLVQAGGSLRLSCAASGSIFPYNDMGWYRQAPGKERELVAAISDSAGSTYYADSVKGRFTISRDNAKNTVYLQMNSLKPEDTAVYYCADYDYWGQGTQVTVSS | low polyreactivity |
| QVQLVESGGGLVQAGGSLRLSCAASGSIFPYNDMGWYRQAPGKERELVARITNGGSTNYADSVKGRFTISRDNAKNTVYLQMNSLKPEDTAVYYCNKDGTQEFAPDGHEYWGQGTQVTVSS | low polyreactivity |
| QVQLVESGGGLVQAGGSLRLSCAASGSIFPYNVMGWYRQAPGKERELVAAITTGGRTNYADSVKGRFTISRDNAKNTVYLQMNSLKPEDTAVYYCAADRVVFGYWYYYWGQGTQVTVSS | high polyreactivity |
| QVQLVESGGGLVQAGGSLRLSCAASGSIFPYNVMGWYRQAPGKERELVAAITTGGRTNYADSVKGRFTISRDNAKNTVYLQMNSLKPEDTAVYYCAARYGYYDSRRWYYYWGQGTQVTVSS | high polyreactivity |
| QVQLVESGGGLVQAGGSLRLSCAASGSIFPYNVMGWYRQAPGKERELVASIDGRGASTYYADSVKGRFTISRDNAKNTVYLQKNSLKPEDTAVYYCAAGYEPYAAWYYYWGQGTQVTVAS | low polyreactivity |
| QVQLVESGGGLVQAGGSLRLSCAASGSIFPYYAMGWYRQAPGKERELVAAITSAGSTNYADSVKGRFTISRDNAKNTVYLQMNSLKPEDTAVYYCAKEYYASGRSYRYPQYDYWGQGTQVTVSS | low polyreactivity |
| QVQLVESGGGLVQAGGSLRLSCAASGSIFPYYAMGWYRQAPGKERELVAAITWSGGNTYYADSVKGRFTISRDNAKNTVYLQMNSLKPEDTAVYYFNALYRKYTGYDGYDYWGQGTQVTVSS | high polyreactivity |
| QVQLVESGGGLVQAGGSLRLSCAASGSIFPYYAMGWYRQAPGKERELVADITSSVGSTYYADSVKGRFTISRDNAKNTVYLQMNSLKPEDTAVYYCAALYWFYVYPFTEYDYWGQGTQVTVSS | low polyreactivity |
| QVQLVESGGGLVQAGGSLRLSCAASGSIFPYYAMGWYRQAPGKERELVATITYRGGSTNYADSVKGRFTISRDNAKNTVYLQMNSLKPEDTAVYYCAAYGYVLASPDPYSFVKLGYWGQGTQVTVSS | low polyreactivity |
| QVQLVESGGGLVQAGGSLRLSCAASGSIFPYYTMGWYRQAPGKERELVAAISGSGTSTYYADSVKGRFTISRDNAKNTVYLQMNSLKPEDTAVYYCAKRFRYGYVNYYYWGQGTQVTVSS | low polyreactivity |
| QVQLVESGGGLVQAGGSLRLSCAASGSIFQANAMGWYRQAPGKEWEFVAAINWSTGTTYYADSVKGRFTISRDNAKNTVYLQMNSLKPEDTAVYYCNASDQAKYDYWGQGTQVTVSS | low polyreactivity |
| QVQLVESGGGLVQAGGSLRLSCAASGSIFQEYAMGWYRQAPGKERELVAAIDDSDGSTYADSVKGRFTISRDNAKTTVYLQMNSLKPDDTAVYYCNADIHATYDYWGQGTQVTVSS | low polyreactivity |

| Sequence | polyreactivity (PSR sort gate) |
| --- | --- |
| QVQLVESGGGLVQAGGSLRLSCAASGSIFQGNAMGWYRQAPGKERELVAAISWSGDSTYYADSVKGRFTISRDNAKNTVYLQMNSLKPEDTAVYYCNAEWTRDFYEYDYWGQGTQVTVSS | low polyreactivity |
| QVQLVESGGGLVQAGGSLRLSCAASGSIFQGNAMGWYRQAPGKERELVAGITRSGGSTYYADSVKGRFTISRDNAKNTVYLQMNSLKPEDTAVYYCAADYSSDGDYWGQGTQVTVSS | low polyreactivity |
| QVQLVESGGGLVQAGGSLRLSCAASGSIFQGYAMGWYRQAPGKERELVASISRGGSTNYADSVKGRFTISRDNAKNTVYLQMNSLKPEDTAVYYCAARAYWYGRYGYWGQGTQVTVSS | high polyreactivity |
| QVQLVESGGGLVQAGGSLRLSCAASGSIFQGYSMGWYRQAPGKERELVAAITASGGSTYYADSVKGRFTISRDNAKNTVSLKMNSLKPEDTAVYYCATDSYWRHDLYRYEYWGQGSQVTVSS | high polyreactivity |
| QVQLVESGGGLVQAGGSLRLSCAASGSIFQHYAMGWYRQAPGKERELVARINWSGGRTYYADSVKGRFTISRDNAKNTVYLQMNSLKPEDTAVYYCNARYYYWGKAAFNYWGQGTQVTVSS | high polyreactivity |
| QVQLVESGGGLVQAGGSLRLSCAASGSIFQHYAMGWYRQAPGKERELVARISYSGGNTYYADSVKGRFTISRDNAKNTVYLQMNSLKPEDTAVYYCAATRSHYPYRSGGDYWGQGTQVTVSS | low polyreactivity |
| QVQLVESGGGLVQAGGSLRLSCAASGSIFQPYAMGWYRQAPGKERELVAAITNGGSTYYADSVKGRFTISRDNAKNTVYLQMNSLKPEDTAVYYCATDVLLYFEPVNLDYWGQGTQVTVSS | low polyreactivity |
| QVQLVESGGGLVQAGGSLRLSCAASGSIFQVYAMGWYRQAPGKERELVATITSGGSTYYADSVKGRFTISRDNAKNTVYLQMNSLKPEDTAVYYCAAGVVYWWTGYPTISTYDYWGQGTQVTVSS | low polyreactivity |
| QVQLVESGGGLVQAGGSLRLSCAASGSIFQYNAMGWYRQAPGKERELVADITSAGRTYYADSVKGRFTISRDNAKNTVYLQMNSLKPEDTAVYYCNKDYHYHFSWYGYWGQGTQVTVSS | low polyreactivity |
| QVQLVESGGGLVQAGGSLRLSCAASGSIFQYNTMGWYRQAPGKESELVASISWRSGSTYYADSVKGRFTISRDNAKNTVYLQMNSLKPEDTAVYYCAAQVDPWWYDAGYDYWGQGTQVTVSS | low polyreactivity |
| QVQLVESGGGLVQAGGSLRLSCAASGSIFQYYAMGWYRQPPGKEREFVAAITSDGSSTYYADSVKGRFTISRDNAKNTVYLQMNSLKPEDTAVYDCAAGWVGDRRPSMYYWGQGTQVTVSS | high polyreactivity |
| QVQLVESGGGLVQAGGSLRLSCAASGSIFQYYVMGWYRQAPGKERELVAAIRRSGTTYYADSVKGRFTISRDNAKNTVYLQMNSLNPEDTAVYYCNKVRGQEPSNYDYWGQGTQVTVSS | low polyreactivity |
| QVQLVESGGGLVQAGGSLRLSCAASGSIFQYYVMGWYRQAPGKERELVAAIRRSGTTYYADSVKGRFTISRDNAMITVYLQMNSLKPEVTAFYYCKKVRCQEPSNYDYWGQGTQVTVSS | low polyreactivity |
| QVQLVESGGGLVQAGGSLRLSCAASGSIFQYYVMGWYRQAPGKERELVAAISQSGGRTYYADSVKGRFTISRDNAKNTVYLQMNSLKPVDTAVFYCAADSRNAEYDYWGQGTQVTVSS | high polyreactivity |
| QVQLVESGGGLVQAGGSLRLSCAASGSIFRANALGWYRPAPGKERELVAAISASGGRTYYADSVKGRFTISRDNAKNTVYLQMNSLKPEDTAVYYCNAYYGYLYHYTYDYWGQGTQVTVSS | high polyreactivity |
| QVQLVESGGGLVQAGGSLRLSCAASGSIFRAYAMGGYRQAPGKERELVAAINWTDGSTYYAASVKGRFTISRDYAKNTVYLQMNSLKPEDTAVYYCAKDSMARHNYWGQGTQVTVSS | low polyreactivity |
| QVQLVESGGGLVQAGGSLRLSCAASGSIFRAYAMGWYRQAPGKERELVAAINWTDGSTYYADSVKGRFTISRDNAKNTVYLQMNSLKPEDTAVYYCAKDSIARHNYWGQGTQVTVSS | low polyreactivity |
| QVQLVESGGGLVQAGGSLRLSCAASGSIFRAYAMGWYRQAPGKERELVATISWSGTSTSYADSVKGRFTISRDNAKNTVYLQMNSLKPEDTAVYYCAAGYASGPRPQTAYYYWGQGTQVTVSS | low polyreactivity |
| QVQLVESGGGLVQAGGSLRLSCAASGSIFRDNAMGWYRQAPGKERELVAAITDSGGRTYYADSVKGRFTISRDNAKNTVYLQMNSLKPEDTAVYYCAAGQSGYAGRRPAFGYWGQGTQVTVSS | low polyreactivity |
| QVQLVESGGGLVQAGGSLRLSCAASGSIFRDNVMGWYRQAPGKERELVAAISKRGGSTYYADSVKGRFTISRDNAKNTVYLQMNSLKPEDTAVYYCAAPQGRSHYYRYDYWGQGTQVTVSS | high polyreactivity |
